Assay results reported in article PMC4041212.

Assays:
BRCA1 [1] = target: BRCA1 (UniProt P38398); assay: anti-V5 co-IP, BRCA1 blot; conditions: reference: wild type V5-EXO1; sites S639,T732,S815,T824
BRCA1 [2] = target: BRCA1 (UniProt P38398); assay: reverse co-IP; conditions: reference: wild type EXO1; sites S639,T732,S815,T824

Substance: EXO1 (from UniProt Q9UQ84) 4A-EXO1
- binding against the reference (BRCA1 [1]): weaker
- binding against the reference (BRCA1 [2]): weaker
